The values that follow come from publication PMC9636267 (2022).

Experiment in all cases: SPR
A general note: SPR reads the build-up and loss of mass on a sensor chip optically.

Assay [1] has as its target T1, HCoV-229E S ectodomain (17–1115 aa), 229E S trimer (human coronavirus 229E, UniProt P15423 17-1115).
T1 chain: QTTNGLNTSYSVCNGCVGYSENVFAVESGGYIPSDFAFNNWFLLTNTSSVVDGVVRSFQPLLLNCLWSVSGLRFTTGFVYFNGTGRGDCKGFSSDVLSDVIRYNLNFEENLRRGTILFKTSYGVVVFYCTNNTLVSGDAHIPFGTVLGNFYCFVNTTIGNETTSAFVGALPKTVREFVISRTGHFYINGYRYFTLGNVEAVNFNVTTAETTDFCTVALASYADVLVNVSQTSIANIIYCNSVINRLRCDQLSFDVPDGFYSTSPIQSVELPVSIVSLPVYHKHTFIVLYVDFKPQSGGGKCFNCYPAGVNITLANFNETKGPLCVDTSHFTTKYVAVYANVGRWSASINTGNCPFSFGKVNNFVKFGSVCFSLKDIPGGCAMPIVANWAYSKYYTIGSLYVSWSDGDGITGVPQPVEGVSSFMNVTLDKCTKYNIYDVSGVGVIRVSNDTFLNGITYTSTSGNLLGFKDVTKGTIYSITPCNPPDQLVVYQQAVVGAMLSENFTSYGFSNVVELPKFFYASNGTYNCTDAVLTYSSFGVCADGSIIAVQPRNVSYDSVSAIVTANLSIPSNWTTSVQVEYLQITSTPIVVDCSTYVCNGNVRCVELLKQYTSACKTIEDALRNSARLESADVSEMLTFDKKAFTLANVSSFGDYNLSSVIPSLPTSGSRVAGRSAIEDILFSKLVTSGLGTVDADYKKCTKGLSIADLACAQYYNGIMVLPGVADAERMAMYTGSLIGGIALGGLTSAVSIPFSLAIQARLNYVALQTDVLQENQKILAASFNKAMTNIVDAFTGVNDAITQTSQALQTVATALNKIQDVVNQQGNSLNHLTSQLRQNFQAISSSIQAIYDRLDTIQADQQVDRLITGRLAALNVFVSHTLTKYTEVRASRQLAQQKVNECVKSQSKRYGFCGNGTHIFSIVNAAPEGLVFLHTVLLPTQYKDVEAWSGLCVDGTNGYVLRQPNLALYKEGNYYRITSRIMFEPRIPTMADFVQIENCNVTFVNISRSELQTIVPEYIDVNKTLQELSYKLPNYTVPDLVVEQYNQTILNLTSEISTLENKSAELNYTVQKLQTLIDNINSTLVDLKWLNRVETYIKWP

The target of assay [2] is T2, HCoV-229E RBD (294–435 aa) (human coronavirus 229E, UniProt P15423 294-435).
T2 chain: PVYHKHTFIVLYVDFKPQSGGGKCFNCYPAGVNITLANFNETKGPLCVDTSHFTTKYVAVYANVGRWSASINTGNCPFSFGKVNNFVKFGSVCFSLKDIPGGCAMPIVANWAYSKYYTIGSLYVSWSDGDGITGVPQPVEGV

Assay [3] concerns the target T3, HCoV-229E S1 subunit (17–560 aa) (human coronavirus 229E, UniProt P15423 17-560).
T3 chain: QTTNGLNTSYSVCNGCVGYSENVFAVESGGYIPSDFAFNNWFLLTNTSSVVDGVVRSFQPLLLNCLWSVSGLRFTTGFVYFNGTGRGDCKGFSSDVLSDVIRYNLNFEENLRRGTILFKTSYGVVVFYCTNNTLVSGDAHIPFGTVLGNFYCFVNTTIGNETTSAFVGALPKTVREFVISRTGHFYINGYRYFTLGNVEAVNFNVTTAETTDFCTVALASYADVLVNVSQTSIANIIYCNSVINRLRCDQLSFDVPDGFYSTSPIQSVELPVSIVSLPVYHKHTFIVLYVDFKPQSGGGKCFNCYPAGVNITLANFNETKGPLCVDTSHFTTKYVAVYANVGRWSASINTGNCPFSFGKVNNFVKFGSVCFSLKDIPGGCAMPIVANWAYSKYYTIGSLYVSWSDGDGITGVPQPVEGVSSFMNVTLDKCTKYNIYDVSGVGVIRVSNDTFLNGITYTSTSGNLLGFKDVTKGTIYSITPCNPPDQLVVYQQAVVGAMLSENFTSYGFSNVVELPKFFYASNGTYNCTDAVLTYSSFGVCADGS

In assay [4] the target is T1, HCoV-229E S ectodomain (17–1115 aa), ….
Assay [5] concerns the target T2, HCoV-229E RBD (294–435 aa).
Assay [6] deals with T3, HCoV-229E S1 subunit (17–560 aa).

B1: Fab C04 (Fab, V domains shown)
VH: EVQLVESGGGLVQPGGSLRLSCAASGFNISSSYIHWVRQAPGKGLEWVASIYSSYGYTYYADSVKGRFTISADTSKNTAYLQMNSLRAEDTAVYYCARWWASVGGAGGGLDYWGQGTLVTVSS
VL: DIQMTQSPSSLSASVGDRVTITCRASQSVSSAVAWYQQKPGKAPKLLIYSASSLYSGVPSRFSGSRSGTDFTLTISSLQPEDFATYYCQQGYGWLITFGQGTKVEIK
For the molecule B1, the values for the koff in assay [1], in assay [5] and in assay [6] were 0.0064 s⁻¹, 0.0055 s⁻¹ and 0.007 s⁻¹, respectively. For the same molecule, the Kd (commonly the free concentration of one partner at which half of the binding sites on the other are occupied at equilibrium, for simple one-to-one binding) came out at 2.9 nM in assay [2], 7.3 nM in assay [3] and 4.4 nM in assay [4].
